Experiment [1] deals with BG505 IDL trimer (HIV-1 strain BG505 (clade A)). Kind of experiment: cryo-EM structure.
Experiment [2] has the same target. The experiment in a line: negative-staining electron microscopy.
The target in experiment [3] is JR-FL IDL trimer (HIV-1 strain JR-FL (clade B)). Kind of experiment: cryo-EM structure.
Experiment [4] deals with WITO IDL trimer (HIV-1 strain WITO (clade B)). Kind of experiment: cryo-EM structure.

BG505 IDL trimer (complex): the stoichiometry N in experiment [1] and in experiment [2] was 3 throughout.

Take JR-FL IDL trimer (complex): in experiment [3], the stoichiometry N worked out at 3. WITO IDL trimer (complex): the stoichiometry N in experiment [4] amounted to 3.

(Values after article PMC11459465.)
